Tests used:
Assay in all cases: One-hybrid system: PR activation domains fused to Gal4 DBD, G5-Luc reporter and western blot in SHM cells
Format in all cases: cell-based
activation domains of PR [1] = target: T1, activation domains of PR (Homo sapiens, UniProt P06401); conditions: PR650-933 (only the AF2 domain)
T1 construct: expressed in transfected cells; host or cells: SHM (Syrian hamster myocyte) cells
T1 sequence (P06401 650-933): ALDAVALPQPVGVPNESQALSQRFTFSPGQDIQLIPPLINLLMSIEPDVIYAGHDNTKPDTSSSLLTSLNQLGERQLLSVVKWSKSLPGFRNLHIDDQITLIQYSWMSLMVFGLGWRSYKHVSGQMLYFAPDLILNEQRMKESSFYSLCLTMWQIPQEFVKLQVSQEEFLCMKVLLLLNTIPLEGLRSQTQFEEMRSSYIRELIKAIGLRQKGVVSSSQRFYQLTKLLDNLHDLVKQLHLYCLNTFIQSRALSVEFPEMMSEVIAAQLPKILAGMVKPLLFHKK
Experimental: (§1) FIG. 6 A-F. Inhibition of PR activation domains by PSF involves different mechanisms. Segments containing individual activation domains of PR were fused to Gal4 DNA binding domain in pM vector and cotransfected with or without increasing amounts of His-PSF, together with G5 luciferase reporter vector in SHM cells. Progesterone (10 nM) was added to cells transfected with segments containing PR hormone binding domain (HBD). Luciferase activity was measured 30 hours after transfection and normalized to β-galatosidase acitvity. Data shown are the mean of three separate experiments performed in triplicate±S.E. Whole cell lysate from each transfection was western blotted with anti-Gal4 DNA binding domain (DBD) antibody (Santa Cruz) and anti-His tag antibody H-15 (Santa Cruz). Note: the empty vector pSG5 was added to the DNA mixture to ensure that the amounts of SV40 promoter in all the transfection assays are equal.
(§2) For immunoprecipitation of the endogenous PR and PSF, T47D cells cultured in 150 mm dishes were lysed in 800 μl NETN buffer containing 150 mM NaCl plus protease inhibitor cocktail. Cell lysate were then incubated with 5 μg of PR or PSF, or control mouse IgG at 4° C. overnight, followed by the addition of 30 μl of protein A/G PLUS-agarose beads (Santa Cruz) for another two hours at 4° C. Resins were washed with NETN containing 250 mM NaCl and eluted with 1×Laemmli buffer. The eluted proteins along with the whole cell extract were western blotted by PR or PSF antibody. • GST pulldown assay: GST pulldown assay was performed as previously described (20). GST and its fusion proteins were first immobilized to glutathione-Sepharose 4B affinity matrix. The matrix was then incubated at 4° C. overnight with rabbit reticulocyte lysate (Promega) containing PR or His-PSF transcribed and translated in presence of ^35S methionine. The matrix was washed three times with cold NETN buffer before adding 1 ×Laemmli buffer to elute associated proteins. The eluted proteins were separated on 10% SDS-PAGE gel. Gels were treated with Enhancer (NEN, Boston, US) dried and analyzed by autoradiography. • Cell culture and transient transfection: SHM cells and 293T cells were maintained in DMEM plus 5% FCS (Sigma) as described before (22). For experiments involving steroid exposure, the medium was substituted with phenol red free DMEM containing 5% charcoal-treated fetal bovine serum (Hyclone, Utah, USA). Transfection was performed according to manufacturers protocol (Fementas). Cells were seeded at a density to achieve 60-80% confluency the following day. The DNA and transfection reagent were mixed and added to the medium. Cell lysates were collected at least 30 hours after transfection. For luciferase assay, cells were collected in 200 μl of lysis buffer (Promega) of which 10μl was used for the luciferase and β-Gal activity assays respectively. Luciferase activity was determined by using the luciferin reagent (Promega) according to manufacture's protocol. Transfection efficiency was normalized to β-galactosidase activity. For western blots, cell lysates were collected in NETN buffer plus protease inhibitor cocktail. About 30 μg of protein extract was separated on SDS gel electrophoresis followed by western blotting with antibodies of interest. • Electrophoretic Mobility Shift Assay: PRDBD was synthesized in rabbit reticulocyte by using the TNT coupled in vitro transcription-translation system (Promega) with the vector pcDNA3 PRDBD. Full-length PR protein extract was obtained by transiently transfecting 293T cells with Flag-PRB vector. Cells were treated with 10^−8 M progesterone and nuclear fraction was extracted by the NE-PER Nuclear and Cytoplasmic Extraction Reagents Kit (Pierce). The nuclear fraction containing PRs was confirmed by western blot with the PR antibody AB-52 and used in gel shift assay. […]

activation domains of PR [2] = target: T2, activation domains of PR (Homo sapiens, UniProt P06401)
T2 construct: expressed in transfected cells; host or cells: SHM (Syrian hamster myocyte) cells
T2 sequence (P06401 1-164): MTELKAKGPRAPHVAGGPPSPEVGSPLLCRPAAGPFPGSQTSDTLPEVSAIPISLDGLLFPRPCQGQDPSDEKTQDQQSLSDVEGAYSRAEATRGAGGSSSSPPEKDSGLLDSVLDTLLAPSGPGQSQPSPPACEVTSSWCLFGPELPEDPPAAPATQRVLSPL
Experimental: as §1, §2

activation domains of PR [3] = target: T3, activation domains of PR (Homo sapiens, UniProt P06401); remark: listed apart in the source
T3 construct: expressed in transfected cells; host or cells: SHM (Syrian hamster myocyte) cells
T3 sequence (P06401 556-933): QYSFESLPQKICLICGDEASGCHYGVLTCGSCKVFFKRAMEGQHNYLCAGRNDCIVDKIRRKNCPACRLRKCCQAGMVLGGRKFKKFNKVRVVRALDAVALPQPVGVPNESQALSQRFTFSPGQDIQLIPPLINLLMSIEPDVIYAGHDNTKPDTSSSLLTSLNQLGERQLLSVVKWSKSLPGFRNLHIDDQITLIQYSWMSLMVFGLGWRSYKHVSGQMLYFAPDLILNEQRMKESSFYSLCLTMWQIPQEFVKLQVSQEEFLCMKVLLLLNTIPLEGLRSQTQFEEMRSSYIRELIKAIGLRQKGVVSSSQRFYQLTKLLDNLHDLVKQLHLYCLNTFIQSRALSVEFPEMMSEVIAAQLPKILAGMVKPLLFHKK
Experimental: as §1, §2

activation domains of PR [4] = target: T4, activation domains of PR (Homo sapiens, UniProt P06401); conditions: PR456-556 (AF1 domain)
T4 construct: expressed in transfected cells; host or cells: SHM (Syrian hamster myocyte) cells
T4 sequence (P06401 456-556): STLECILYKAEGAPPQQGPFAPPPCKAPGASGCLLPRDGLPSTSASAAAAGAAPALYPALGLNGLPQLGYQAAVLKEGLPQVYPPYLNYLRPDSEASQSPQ
Experimental: as §1, §2

B1: polypyrimidine tract binding protein-associated splicing factor (protein)
chain: MSRDRFRSRGGGGGGFHRRGGGGGRGGLHDFRSPPPGMGLNQNRGPMGPGPGQSGPKPPIPPPPPHQQQQQPPPQQPPPQQPPPHQPPPHPQPHQQQQPPPPPQDSSKPVVAQGPGPAPGVGSAPPASSSAPPATPPTSGAPPGSGPGPTPTPPPAVTSAPPGAPPPTPPSSGVPTTPPQAGGPPPPPAAVPGPGPGPKQGPGPGGPKGGKMPGGPKPGGGPGLSTPGGHPKPPHRGGGEPRGGRQHHPPYHQQHHQGPPPGGPGGRSEEKISDSEGFKANLSLLRRPGEKTYTQRCRLFVGNLPADITEDEFKRLFAKYGEPGEVFINKGKGFGFIKLESRALAEIAKAELDDTPMRGRQLRVRFATHAAALSVRNLSPYVSNELLEEAFSQFGPIERAVVIVDDRGRSTGKGIVEFASKPAARKAFERCSEGVFLLTTTPRPVIVEPLEQLDDEDGLPEKLAQKNPMYQKERETPPRFAQHGTFEYEYSQRWKSLDEMEKQQREQVEKNMKDAKDKLESEMEDAYHEHQANLLRQDLMRRQEELRRMEELHNQEMQKRKEMQLRQEEERRRREEEMMIRQREMEEQMRRQREESYSRMGYMDPRERDMRMGGGGAMNMGDPYGSGGQKFPPLGGGGGIGYEANPGVPPATMSGSMMGSDMRTERFGQGGAGPVGGQGPRGMGPGTPAGYGRGREEYEGPNKKPRF
notes: expressed from transfected His-PSF vector or in vitro translated
- effect on PR650-933 (activation domains of PR [1]): no effect
- luciferase activity of pM PR1-164 (activation domains of PR [2]; PR1-164 (AF3), increasing amounts of PSF): significant dose-dependent reduction in luciferase activity
- pM PR1-164 protein (activation domains of PR [2]; PR1-164, western blot): loss of pM PR1-164 protein
- transactivation of PR556-933 (activation domains of PR [3]; PR556-933 (DBD and AF2 domain), 10 nM progesterone): did inhibit transactivation
- protein level of PR556-933 (activation domains of PR [3]; PR556-933, western blot): without any reduction
- effect on PR456-556 (activation domains of PR [4]): no effect
